Measurements published in the RNAGym collection of RNA variant scans (doi:10.1073/pnas.2313332121).

B1: TPR t1 (parent)
chain: GACCAAUCUGCCCUCAGAGCUCGAGAACAUCUUCGGAUGCAGAGGAGGCAGGCUUCGGUGGCGCGAUAGCGCCAACGUCCUCAACCUCCAAUGCAUCCCACCACAUGAUGAUGCCUGAAGAGCCUUGGUUUUUUG

Variants of: B1
Assay: polymerase ribozyme fitness, log enrichment relative to wild type (log ratio); higher = more active; in vitro selection for triplet polymerase activity
Procedure, shortened: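 Frozen incubation at −7 °C formed the core of a single, triplicate in vitro selection round applied to PCR-built, transcribed mutant libraries of each subunit of a heterodimeric triplet polymerase ribozyme. Extended constructs were gel-excised, captured with streptavidin beads and amplified by RT-PCR, and input and output libraries were Illumina-sequenced with a filter of ≥10 input reads and ≥1 read per output. Fitness is the logarithm of genotype enrichment relative to wild-type enrichment, with inverse-variance-weighted replicate averaging, and the logarithm is base 2.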

| Variant | polymerase ribozyme fitness (log ratio) |
| --- | --- |
| C11U A26U G47U | -3.55 |
| C11G C22U A50U C56A G57U C89U | -6.34 |
| C11G C13U C70G C97A A103C C123U | -7.22 |
| C11G G60U U116G C124U | -3.49 |
| C11A G113U G122U | -2.8 |
| C11G A24G C40U G120U U132G | -2.9 |
| C11G G17U A91C G117A | -1.55 |
| C11G C20U G69U A84U C85U G122A U126G G128U | -2.39 |
| C11A G128C | -3.97 |
| C11U A18C C82A C104U | -2.34 |
| C11G A18U A41U G57A A74U C114U G128C | -4.05 |
| C11U A37C G45U G58A U96A C101A | -2.32 |
| C11A G113U | -3.17 |
| C11A G63C | -1.78 |
| C11U A18G A50U U96A C98U G110A A121G U134G | -5.84 |
| C11G C20U A46G A83G A95G | -1.9 |
| C11G G110C | -3.47 |
| C11G G110U | -0.409 |
| C11G G110A | -1.04 |
| C11G U30G U112A | -4.82 |
| C11G U21A | -0.298 |
| C11A U87G C101G | -2.62 |
| C11G G19C | -2.06 |
| C11G C79G C82A | -1.78 |

| Variant | polymerase ribozyme fitness (log ratio) |
| --- | --- |
| C11U A41U G69C | -2.81 |
| C11G G44A C56G C82G C88U | -2.81 |
| C11A U33G | -6.86 |
| C11G C64A A111U U130G | -6.86 |
| C11U A43U G110U U132A | -3.03 |
| C11G A41G | 0.309 |
| C11A G61C A100C A121U | -1.61 |
| C11U A16G U54G C102U C104U G117A | -5.64 |
| C11G G77A U92A U129C | -4.39 |
| C11G A29C C49A G117A G120A | -3.48 |
| C11G C53G | -1.43 |
| C11G G48A C82U G122U | 0.0866 |
| C11A G61A C62A C80U G113C | -7.76 |
| C11G G35A G117U | -6.34 |
| C11G C22U G61C A83G | -6.84 |
| C11G G44C C79G | -2.6 |
| C11G G17C U55G C73U | -3.54 |
| C11G U92G | -2.49 |
| C11G A27G A29U C94U | -2.53 |
| C11G C80U C101A | -0.977 |
| C11G A37U C72G A111C U129A U132C | -0.79 |
| C11U A26U U54G | -2.81 |
| C11G C49U C73A G77A C102U G110U | -6.69 |
| C11G G36C G44C U78A U87G | -1.77 |

| Variant | polymerase ribozyme fitness (log ratio) |
| --- | --- |
| C11G U33C C73U C99U A111C | -6.85 |
| C11G C72G G117A | -0.843 |
| C11G C22U G36A | -4.08 |
| C11G G45A G52U C101A U106A A121U | 0.469 |
| C11A U96A G113C | -5.3 |
| C11G U21A C53G C114A | 0.189 |
| C11G A18U | -1.34 |
| C11G G19A C53U C62U A111G | -1 |
| C11G A29G G61U C94G | -2.6 |
| C11G C104A U130A | -2.13 |
| C11A G93U | -1.93 |
| C11G U131G | -0.902 |
| C11G A50C A75U C97A C102U | -4.52 |
| C11G A50G C97G | -2.97 |
| C11G U54A G93C | -0.558 |
| C11G U78C C114A G120C | -0.166 |
| C11G U109A G110C | -4.59 |
| C11G G36U A43U C62U G63A C115U U125A U132A | -5.64 |
| C11G G61U | 0.628 |
| C11G U59C | 1.4 |
| C11G A50G C62U G110C | -4.81 |
| C11G C79A G120C | 1.11 |
| C11G A37G G69C C115G | -3.53 |
| C11G G51A C53G G61U C124U U131G | -1.99 |

| Variant | polymerase ribozyme fitness (log ratio) |
| --- | --- |
| C11G A95U U129C | -1.01 |
| C11U A27U C72U U78G A121U | -0.173 |
| C11G A41C U87A U92G | -1.84 |
| C11G C12U U21G A37U | -2.2 |
| C11G C40A C53A | -0.596 |
| C11G U96A | -0.629 |
| C11G G39U C56U | -0.805 |
| C11G C85G G117A | -1.6 |
| C11G C53G C62A C89A G122U | -3.13 |
| C11A G77A A84U G122A | -1.06 |
| C11A U96A | -2.53 |
| C11G C15G A90C G110A | -4.74 |
| C11U A16U U54G U59C | -3.88 |
| C11G C34A G122A C123A | -1.19 |
| C11G A37C G61A | -0.00618 |
| C11G U54C | -0.0215 |
| C11G C53A G61C | -4.59 |
| C11A U112G | -1.43 |
| C11G C15A U59A C73A U125A | -1.02 |
| C11U A18C C72G G127A | -5.18 |
| C11G G57A G58A C62A G63A | -3.98 |
| C11U A26U | -3.21 |
| C11G G44A U133G | -1.89 |
| C11G A18U C86U C124U | -0.586 |

| Variant | polymerase ribozyme fitness (log ratio) |
| --- | --- |
| C11G C12A U38G G71A U106C G113A | -3.24 |
| C11G U21G C53A U55C | -0.805 |
| C11G A26C G60U C97U G120U U132A | -3.92 |
| C11G G71A C80G G128A | -6.67 |
| C11G A41C C56U C72U G93A C123G G135U | -4.47 |
| C11G A105U U112A A119G G120A G122A | -0.827 |
| C11G U59A C85A U87A | -1.45 |
| C11A U54A C123A | 0.93 |
| C11G C40U C49U U55G U130A U132A | -1.35 |
| C11A U38G G48C C115G G122U | -2.9 |
| C11U A24U C28G C62G A83G G113U U133C | -6.38 |
| C11G G63U C85U U87C G110A | -2.67 |
| C11G C13A A16U C79U | -2.88 |
| C11G U78G A91G A95C G135U | -1.3 |
| C11G G45A C53G G57U C104G C114U | -6.51 |
| C11G C40A C72U C101U C104U G135U | -0.627 |
| C11G U54C C62A A95C G128C | -3.23 |
| C11G G44A | -0.407 |
| C11G G17A G71U U81A C85U G117C | -6.69 |
| C11G G42U C104A A121C | -3.09 |
| C11G C34U | -2.8 |
| C11G A16C A29G G45U | -4.19 |
| C11G A18U C40U C82U C99A U109G | -5.71 |
| C11G C22U G113U A119G | -5.79 |

| Variant | polymerase ribozyme fitness (log ratio) |
| --- | --- |
| C11G G107A | -4.44 |
| C11G C12U G42C G69C C115G | -6.44 |
| C11G C115U U130A | -0.677 |
| C11G U14C A41G C56G | -0.436 |
| C11G C56A | -0.185 |
| C11G C28G C56G C85G | -6.05 |
| C11G A26U | -1.77 |
| C11G G51C A84G U131C | -3.58 |
| C11U A29C C72G U112A G135U | -2.74 |
| C11G G47A C88A G127C | -2.42 |
| C11U A26U U55C G71U | -3 |
| C11G A29G | -1.16 |
| C11G A29U | -1.95 |
| C11G A46C | -1.01 |
| C11G C94U U96A | -0.725 |
| C11G A27U G47C G69U A83U | -2.78 |
| C11G C82A | -0.254 |
| C11G C49G C70U C88G A111U G127C | -5.65 |
| C11G G135U | -0.0424 |
| C11G C114G | -2.38 |
| C11G C114U | -0.754 |
| C11G U14A G19U U55G U92G A121G | -3.45 |
| C11G A37C | -0.179 |
| C11G C76U U78A | 0.137 |

| Variant | polymerase ribozyme fitness (log ratio) |
| --- | --- |
| C11G C56U A111U | -2.23 |
| C11G G57A G93A U96A | -2.56 |
| C11G C12A G36C C72U C73U | -1.07 |
| C11G G57U G120A | 1.4 |
| C11G C49A | 0.121 |
| C11G C49U | 0.783 |
| C11G A46G U106G G128U | -2.63 |
| C11G C64U G117C | -1.98 |
| C11G A83U U126G | -0.958 |
| C11G G52C G117A | -1.05 |
| C11G C13A | -2.58 |
| C11U A46G G51U C80U | -1.92 |
| C11A G63C U81G | -5.33 |
| C11A U30C U81A C104G A111U A119G U132C | -6.53 |
| C11G C12U C53U U54A C86U A90G U96A C101U | -2.39 |
| C11G A29U G117C | -3.19 |
| C11G C70G | -2.08 |
| C11G C70A | -0.991 |
| C11A U30C G47A G63A A121G U131A | -3.75 |
| C11A U30G A37C U112C | -5.59 |
| C11U A29G C53U C73G | -1.9 |
| C11G U55A U59G U106G G117C | -4.89 |
| C11G G19A A43U | -1.81 |
